By EC50 is commonly meant the concentration needed to bring the measured effect to its halfway point. The IC50 is the point on the concentration scale where inhibition reaches its midpoint.

Consider four molecules from patent publication US20240425603A1 (Janssen / Centocor, published 2024).

Experiment [1] addresses T1, human VEGFR1, full length, over-expressed on cells (human, UniProt P17948 27-1338).
T1 construct: on CHO-K1 or HEK cells; also called hVEGFR1; CHOK1/ human VEGFR1
The experiment can be described thus: flow cytometry, CHO-K1 cells stably expressing human VEGFR1. On the procedure: Full dose-response curves for binding of anti-VEGFR1 antibodies to VEGFR1 on cells were also generated. Parental CHO-K1 cells and CHO-K1 cells stably expressing human VEGFR1 (CHO-K1\hVEGFR1) were cultured in aMEM+10% FBS and aMEM+10% FBS containing 10 μg/mL Puromycin, respectively. CHOK1\hVEGFR1 were stained with CSFE as described above and parental CHO-K1 cells were left unstained. Cells were washed, combined (˜0.5×10⁶ cells/mL), and plated at ˜40,000 cells per well (75 μL/well). Serially diluted antibody samples were then added to the cells and incubated for 1 hour at 37° C. Cells were washed twice with stain buffer and then stained with AF647-conjugated secondary antibody for 30 min at 4° C. Plated cells were washed twice followed by the addition of read buffer containing Sytox Blue (1:1000) and read on an iQue flow cytometer. Data was fit to obtain EC₅₀ values (Table 22).

Experiment [2] addresses T2, human VEGFR2, over-expressed on HEK293 cells (human, UniProt P35968 20-1356).
T2 construct: whole, on cells; also called huVEGFR2; hVEGFR2
The experiment can be described thus: FACS cell binding (MFI) on HEK cells over-expressing human VEGFR2; expanded clone supernatant per paragraph 492, concentration not given. The essentials: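 Flow cytometry was used to measure binding of culture supernatants to HEK cells over-expressing mouse VEGFR1 or human VEGFR2 and to K562 cells over-expressing human VEGFR3. The supernatants came from chicken-derived clones expressed as scFv-Fc (human IgG1) by transient transfection and expanded to 6-well plates (2 mL). Binding is reported as mean fluorescence intensity.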

Experiment [3] deals with T3, Recombinant mouse VEGFR1-Fc (R&D Systems) (mouse, UniProt P35969 27-759, limits assumed).
T3 construct: bought; not shown: Fc part of the bought fusion, not described
T3 sequence (looked up): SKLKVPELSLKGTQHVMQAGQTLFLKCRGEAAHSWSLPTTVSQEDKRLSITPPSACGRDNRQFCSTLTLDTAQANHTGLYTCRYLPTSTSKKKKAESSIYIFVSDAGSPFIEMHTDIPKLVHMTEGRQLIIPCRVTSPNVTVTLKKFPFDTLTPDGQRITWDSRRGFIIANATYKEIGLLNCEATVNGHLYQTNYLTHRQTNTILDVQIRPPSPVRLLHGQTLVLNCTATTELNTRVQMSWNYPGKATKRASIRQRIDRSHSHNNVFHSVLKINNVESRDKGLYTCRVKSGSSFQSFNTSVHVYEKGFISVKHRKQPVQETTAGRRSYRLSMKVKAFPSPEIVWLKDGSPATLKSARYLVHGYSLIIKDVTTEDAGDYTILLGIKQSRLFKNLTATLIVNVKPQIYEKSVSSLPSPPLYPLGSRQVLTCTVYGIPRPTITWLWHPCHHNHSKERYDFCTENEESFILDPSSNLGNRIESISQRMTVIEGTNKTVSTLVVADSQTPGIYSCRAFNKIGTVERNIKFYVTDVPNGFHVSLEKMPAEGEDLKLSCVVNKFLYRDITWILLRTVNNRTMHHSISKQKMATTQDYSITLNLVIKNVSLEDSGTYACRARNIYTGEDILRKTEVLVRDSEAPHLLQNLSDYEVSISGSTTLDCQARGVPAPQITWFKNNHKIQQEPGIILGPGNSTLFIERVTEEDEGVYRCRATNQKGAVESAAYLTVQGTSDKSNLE
The experiment can be described thus: MSD ECL competition on plate-bound mouse VEGFR1-Fc; competitor biotin mouse VEGFA164 (0.2 nM). Summed up: (§1)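 MSD 384 plates were coated with Protein A/G or anti-His mAb, blocked with Blocker A, and used to capture human or mouse VEGFR1-Fc or His-tagged cyno VEGFR1 at 0.5 ug/ml for 1 hour at room temperature. Antibody in half-log dilutions was pre-incubated for 30 minutes, after which biotinylated VEGFA (0.2 nM) or PlGF (2 nM) was added. Bound ligand was detected with Sulfo-tagged streptavidin on an MSD SECTOR S 600 imager, and IC50 and maximal percent inhibition were derived from the electro-chemiluminescence signal.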

Experiment [4] deals with T4, cynomolgus monkey VEGFR1, over-expressed on HEK293 cells (cynomolgus monkey).
T4 construct: whole, on cells; also called HEK/ cyno VEGFR1; cynoVEGFR1
The experiment can be described thus: flow cytometry, HEK cells over-expressing cyno VEGFR1; competitor biotinylated VEGF A (500 pM). On the technique in general: Flow cytometry measures light scatter and fluorescence of single cells or particles in a stream.

In a further experiment the target is His tagged cyno VEGFR1 (cynomolgus monkey, UniProt A0A2K5VAF2 27-758). The experiment can be described thus: MSD ECL competition on plate-bound His-tagged cyno VEGFR1; competitor biotin human VEGFA165 (0.2 nM). The essentials:
as §1

Experiment [5] addresses T5, human VEGFR3, over-expressed on K562 cells (human, UniProt P35916 25-1363).
T5 construct: whole, on cells; also called huVEGFR3; hVEGFR3
Nature of the experiment: flow cytometry, 10 nM antibody, K562 cells over-expressing human VEGFR3.

Experiment [6] has as its target T1, human VEGFR1, full length, …. The experiment can be described thus: flow cytometry, CHOK1 cells over-expressing human VEGFR1; competitor biotinylated VEGF A (500 pM). As to the method: Ligand blocking on cells was determined as follows: Cell Trace Violet CSFE (ThermoFisher Scientific) stained cells were plated at 15,000 cells per well (30 μL/well; CHO parental or CHO cells engineered to over-express human VEGFR1) in FACS staining buffer. An equivalent volume of serially diluted test antibody was applied to the cells and incubated for one hour at 4° C. Cells were washed twice with 200 μL/well of stain buffer followed by the addition of 100 μL/well of biotinylated VEGF A ligand (500 pM). The cells were incubated at 4° C. for another hour followed by the addition of 50 µL/well of AF647-conjugated streptavidin (3 nM). The plate was incubated at 4° C. for 30 min protected from light, washed twice with 200 μL/well of stain buffer, collected by centrifugation, resuspended in running buffer containing Sytox Blue live/dead stain and then read on an Intellicyt iQue Plus flow cytometer. Data was fit to obtain IC₅₀ values. Percent ligand blocking was calculated for each concentration of each test antibody and IC50 values were determined (Table 25).

The target in experiment [7] is T6, Recombinant human VEGFR1-Fc (R&D Systems) (human, UniProt P17948 27-687, limits assumed).
T6 construct: bought; not shown: Fc part of the bought fusion, not described
Nature of the experiment: MSD ECL competition on plate-bound human VEGFR1-Fc; competitor biotin human VEGFA165 (0.2 nM). Summed up:
as §1

T6 sequence (P17948 27-687 limits assumed): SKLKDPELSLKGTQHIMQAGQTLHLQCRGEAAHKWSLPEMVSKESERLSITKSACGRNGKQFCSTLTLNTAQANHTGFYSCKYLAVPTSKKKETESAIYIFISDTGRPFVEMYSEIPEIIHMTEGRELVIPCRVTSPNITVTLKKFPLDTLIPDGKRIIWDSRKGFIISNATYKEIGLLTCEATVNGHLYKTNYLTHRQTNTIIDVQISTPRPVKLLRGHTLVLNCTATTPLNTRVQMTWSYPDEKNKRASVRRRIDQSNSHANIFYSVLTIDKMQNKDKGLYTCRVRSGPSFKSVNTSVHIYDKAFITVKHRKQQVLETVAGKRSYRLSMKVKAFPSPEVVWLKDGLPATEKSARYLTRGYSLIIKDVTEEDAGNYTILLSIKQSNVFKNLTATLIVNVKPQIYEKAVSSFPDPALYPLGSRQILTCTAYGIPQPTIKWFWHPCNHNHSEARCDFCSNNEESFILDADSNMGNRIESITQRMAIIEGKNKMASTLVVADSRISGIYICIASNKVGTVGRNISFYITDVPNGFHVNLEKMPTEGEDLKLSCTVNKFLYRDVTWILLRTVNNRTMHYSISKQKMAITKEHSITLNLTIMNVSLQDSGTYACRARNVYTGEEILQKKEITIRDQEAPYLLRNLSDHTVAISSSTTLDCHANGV
T1 sequence (P17948 27-1338 limits assumed): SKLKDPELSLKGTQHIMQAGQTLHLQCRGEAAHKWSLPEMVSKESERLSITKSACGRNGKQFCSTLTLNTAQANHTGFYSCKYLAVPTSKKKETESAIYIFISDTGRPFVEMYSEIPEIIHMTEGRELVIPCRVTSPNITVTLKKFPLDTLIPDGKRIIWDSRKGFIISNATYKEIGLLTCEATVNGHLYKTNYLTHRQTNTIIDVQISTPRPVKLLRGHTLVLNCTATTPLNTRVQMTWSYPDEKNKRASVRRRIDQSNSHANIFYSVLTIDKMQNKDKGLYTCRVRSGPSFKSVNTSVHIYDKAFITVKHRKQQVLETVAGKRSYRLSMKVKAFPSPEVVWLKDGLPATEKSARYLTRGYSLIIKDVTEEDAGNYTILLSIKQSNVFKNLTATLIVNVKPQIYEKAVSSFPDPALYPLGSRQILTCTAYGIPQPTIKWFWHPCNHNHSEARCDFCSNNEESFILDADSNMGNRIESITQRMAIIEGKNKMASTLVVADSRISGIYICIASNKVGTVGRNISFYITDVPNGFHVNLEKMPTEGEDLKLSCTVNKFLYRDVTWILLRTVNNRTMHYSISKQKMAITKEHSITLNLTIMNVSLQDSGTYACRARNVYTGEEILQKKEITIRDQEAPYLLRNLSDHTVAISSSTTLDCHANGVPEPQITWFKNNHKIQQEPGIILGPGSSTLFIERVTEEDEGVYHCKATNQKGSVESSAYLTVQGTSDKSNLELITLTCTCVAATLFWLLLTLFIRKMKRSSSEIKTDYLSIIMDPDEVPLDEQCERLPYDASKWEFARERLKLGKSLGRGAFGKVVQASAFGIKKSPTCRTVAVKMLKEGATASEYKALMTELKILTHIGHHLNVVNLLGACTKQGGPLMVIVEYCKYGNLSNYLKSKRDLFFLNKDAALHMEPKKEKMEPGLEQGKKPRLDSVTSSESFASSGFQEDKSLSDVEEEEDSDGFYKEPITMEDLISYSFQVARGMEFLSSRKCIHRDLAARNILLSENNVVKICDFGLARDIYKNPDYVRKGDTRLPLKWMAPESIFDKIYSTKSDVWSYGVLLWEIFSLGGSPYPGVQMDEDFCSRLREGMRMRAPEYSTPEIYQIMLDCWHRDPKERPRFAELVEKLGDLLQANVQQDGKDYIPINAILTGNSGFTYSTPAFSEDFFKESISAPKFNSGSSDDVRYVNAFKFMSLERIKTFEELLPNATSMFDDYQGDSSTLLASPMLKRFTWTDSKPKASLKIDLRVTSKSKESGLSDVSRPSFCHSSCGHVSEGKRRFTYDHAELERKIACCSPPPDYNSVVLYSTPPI
T2 sequence (P35968 20-1356): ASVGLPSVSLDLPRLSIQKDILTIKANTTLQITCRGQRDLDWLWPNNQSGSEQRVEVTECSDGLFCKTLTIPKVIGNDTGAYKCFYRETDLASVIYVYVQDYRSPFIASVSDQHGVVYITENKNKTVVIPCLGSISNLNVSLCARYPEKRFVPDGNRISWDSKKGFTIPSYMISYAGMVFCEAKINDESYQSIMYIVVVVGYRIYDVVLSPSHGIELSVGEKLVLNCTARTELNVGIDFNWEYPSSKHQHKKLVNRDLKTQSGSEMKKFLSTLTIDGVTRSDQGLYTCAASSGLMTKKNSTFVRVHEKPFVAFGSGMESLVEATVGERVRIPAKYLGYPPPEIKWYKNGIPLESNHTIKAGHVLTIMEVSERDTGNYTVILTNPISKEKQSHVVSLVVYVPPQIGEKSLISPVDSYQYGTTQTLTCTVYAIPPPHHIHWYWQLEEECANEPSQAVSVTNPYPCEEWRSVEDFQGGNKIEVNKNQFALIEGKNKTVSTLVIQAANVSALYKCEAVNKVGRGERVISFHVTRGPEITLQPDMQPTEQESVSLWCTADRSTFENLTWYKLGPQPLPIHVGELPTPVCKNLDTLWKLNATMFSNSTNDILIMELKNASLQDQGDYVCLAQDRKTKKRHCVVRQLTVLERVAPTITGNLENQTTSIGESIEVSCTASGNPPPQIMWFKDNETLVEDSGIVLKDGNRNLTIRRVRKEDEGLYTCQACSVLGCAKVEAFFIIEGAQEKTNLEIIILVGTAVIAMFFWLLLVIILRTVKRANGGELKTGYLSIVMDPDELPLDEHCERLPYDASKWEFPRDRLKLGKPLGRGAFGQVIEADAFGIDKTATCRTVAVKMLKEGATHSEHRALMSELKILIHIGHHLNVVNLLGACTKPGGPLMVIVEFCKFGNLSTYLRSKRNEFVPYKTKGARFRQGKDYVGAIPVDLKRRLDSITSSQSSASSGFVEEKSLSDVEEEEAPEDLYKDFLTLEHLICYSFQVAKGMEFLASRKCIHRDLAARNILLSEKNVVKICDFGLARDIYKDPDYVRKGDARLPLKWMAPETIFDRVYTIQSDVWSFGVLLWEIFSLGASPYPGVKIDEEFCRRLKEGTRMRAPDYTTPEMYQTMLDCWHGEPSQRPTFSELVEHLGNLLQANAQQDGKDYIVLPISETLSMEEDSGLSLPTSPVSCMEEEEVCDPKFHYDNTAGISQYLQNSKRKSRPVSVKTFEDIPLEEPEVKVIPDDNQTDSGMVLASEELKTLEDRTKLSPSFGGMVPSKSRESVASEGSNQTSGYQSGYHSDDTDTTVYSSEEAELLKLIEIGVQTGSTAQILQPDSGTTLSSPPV
T5 sequence (P35916 25-1363): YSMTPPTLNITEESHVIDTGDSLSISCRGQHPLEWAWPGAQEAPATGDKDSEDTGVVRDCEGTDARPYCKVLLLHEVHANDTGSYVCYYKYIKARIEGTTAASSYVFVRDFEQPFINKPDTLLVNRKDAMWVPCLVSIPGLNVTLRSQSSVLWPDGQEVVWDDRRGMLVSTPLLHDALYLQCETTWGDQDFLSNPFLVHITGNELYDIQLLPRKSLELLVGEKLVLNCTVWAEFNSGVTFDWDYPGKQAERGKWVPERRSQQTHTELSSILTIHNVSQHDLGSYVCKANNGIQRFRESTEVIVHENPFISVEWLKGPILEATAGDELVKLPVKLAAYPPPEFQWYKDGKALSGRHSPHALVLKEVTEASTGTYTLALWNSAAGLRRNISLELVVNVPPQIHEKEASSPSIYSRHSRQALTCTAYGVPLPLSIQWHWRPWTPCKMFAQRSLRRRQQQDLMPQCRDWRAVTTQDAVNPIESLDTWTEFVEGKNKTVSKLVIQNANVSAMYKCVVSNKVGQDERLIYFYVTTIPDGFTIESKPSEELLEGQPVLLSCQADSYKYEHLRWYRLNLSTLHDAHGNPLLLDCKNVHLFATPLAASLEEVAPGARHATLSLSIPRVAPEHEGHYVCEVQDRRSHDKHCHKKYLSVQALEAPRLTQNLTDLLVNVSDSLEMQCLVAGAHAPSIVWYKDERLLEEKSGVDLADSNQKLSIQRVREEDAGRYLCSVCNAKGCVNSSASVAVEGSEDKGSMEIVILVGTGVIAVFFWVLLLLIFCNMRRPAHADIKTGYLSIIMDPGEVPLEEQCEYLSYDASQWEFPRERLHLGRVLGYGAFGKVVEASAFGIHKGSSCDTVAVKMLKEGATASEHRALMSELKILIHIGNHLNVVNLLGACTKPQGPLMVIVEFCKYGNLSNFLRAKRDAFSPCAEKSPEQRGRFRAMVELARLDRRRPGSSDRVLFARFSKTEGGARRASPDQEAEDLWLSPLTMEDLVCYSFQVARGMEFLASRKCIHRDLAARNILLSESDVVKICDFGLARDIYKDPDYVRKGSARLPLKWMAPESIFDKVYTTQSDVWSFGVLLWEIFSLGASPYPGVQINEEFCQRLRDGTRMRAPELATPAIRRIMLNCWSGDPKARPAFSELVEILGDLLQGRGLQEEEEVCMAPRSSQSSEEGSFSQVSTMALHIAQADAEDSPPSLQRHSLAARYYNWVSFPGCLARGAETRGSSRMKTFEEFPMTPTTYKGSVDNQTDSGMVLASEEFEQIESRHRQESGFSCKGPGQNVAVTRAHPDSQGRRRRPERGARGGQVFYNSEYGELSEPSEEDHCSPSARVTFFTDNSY

B1: VGFB54 (antibody, human IgG1, lambda, L234A L235A, V domains shown)
VH: EVQLLESGGGSVQPGGSLRLSCTASGFNFEDYGMNWVRQAPGKGLDWVSSINRNGDISTYHVDSVKGRFTISRDNSKNTLYLQMNSLRAEDTAIYYCTKNHDYHGMDVWGQGTTVTVSS
VL: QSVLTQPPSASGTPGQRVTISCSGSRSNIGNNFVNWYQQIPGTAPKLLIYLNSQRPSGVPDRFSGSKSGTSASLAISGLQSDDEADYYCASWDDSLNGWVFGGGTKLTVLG
notes: human IgG1 (L234A/L235A/D265S), lambda, 2H:2L; from OmniChicken
Take B1: the EC50 in experiment [1] is 0.101 nM. Besides, in experiment [2], the binding result is on record as “no binding”. Further, the IC50 worked out at 0.026 nM in experiment [3]; 0.0876 nM in experiment [4]; 0.089 nM with His tagged cyno VEGFR1; 0.0727 nM in experiment [6]; 0.141 nM in experiment [7]. For the same molecule, the “Max % Inh.” value in experiment [3] is 100%; with His tagged cyno VEGFR1, 98.6%; in experiment [7] it was 99.9%. For the same molecule, the “Geomean over-expressing/Geomean parental (Fold Signal/Background)” value in experiment [5] is 0.97 fold.

B2: VGFB71 (antibody, human IgG1, lambda, L234A L235A, V domains shown)
VH: EVQLLESGGGLVQPGGSLRLSCEASGFIFRDYNMNWVRQAPGKGLEWVSIITNDGSSTAYSDSVKGRFTISRDNSKNSLYLQMNSLRAEDTAIYYCVKVYYGMDDWGQGTTVTVSS
VL: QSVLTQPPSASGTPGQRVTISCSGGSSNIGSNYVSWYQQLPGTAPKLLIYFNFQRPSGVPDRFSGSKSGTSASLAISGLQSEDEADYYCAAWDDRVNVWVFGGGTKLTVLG
notes: human IgG1 (L234A/L235A/D265S)
B2 yielded an EC50 in experiment [1] of 0.11 nM. Moreover, the values for the half-maximal inhibitory concentration (IC50) in experiment [4] and in experiment [6] were 0.0957 nM and 0.0795 nM, respectively. Besides, the “Geomean over-expressing/Geomean parental (Fold Signal/Background)” value in experiment [5] is 0.98 fold.

B3: VGFB82 (antibody, human IgG1, lambda, L234A L235A, V domains shown)
VH: EVQLLESGGGLVQPGGSLRLSCEASGFDFSTYAMNWVRQAPGKGLEWVATINSEGTITSHAPAVKGRFTISRDNSKNTAYVQMNSLRAEDSAVYYCSSTTGTTHGMDVWGRGTTVTVSS
VL: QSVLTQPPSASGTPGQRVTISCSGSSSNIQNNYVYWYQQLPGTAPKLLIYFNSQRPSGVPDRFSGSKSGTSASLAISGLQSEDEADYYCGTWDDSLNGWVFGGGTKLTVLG
notes: as for B2
In the case of B3, the EC50 in experiment [1] worked out at 0.136 nM. Besides, the binding result in experiment [2] is “no binding”. For the same molecule, the IC50 in experiment [3] was 0.04 nM; in experiment [4] it was 0.231 nM; with His tagged cyno VEGFR1 it was 0.081 nM; in experiment [6], 0.198 nM; in experiment [7] it was 0.152 nM. In addition, the “Max % Inh.” value in experiment [3] amounted to 99.8%; with His tagged cyno VEGFR1, 99%; in experiment [7], 99.9%. In addition, the “Geomean over-expressing/Geomean parental (Fold Signal/Background)” value in experiment [5] was determined as 1.01 fold.

B4: VGFB78 (antibody, human IgG1, lambda, L234A L235A, V domains shown)
VH: EVQLLESGGGLVQPGGSLRLSCAASSFTFYNYDMTWVRQAPGKGLEWVAGIGTSGTDMYYADSVKGRFTISRDNSKNTLYLQMNSLRAEDTAIYYCAKDYYYYGMDVWGLGTTVTVSS
VL: not shown
notes: as for B2
As to B4, in experiment [1], the EC50 came to 0.473 nM. Also, the binding result in experiment [2] is “no binding”. Further, the concentration for half-maximal inhibition (IC50) turned out to be 0.183 nM in experiment [3]; 0.815 nM in experiment [4]; 0.134 nM with His tagged cyno VEGFR1; 0.683 nM in experiment [6]; 0.252 nM in experiment [7]. In addition, the “Max % Inh.” value in experiment [3] stood at 101%; in the experiment with His tagged cyno VEGFR1, 98.6%; in experiment [7], 99.9%. For the same molecule, the “Geomean over-expressing/Geomean parental (Fold Signal/Background)” value in experiment [5] turned out to be 0.99 fold.
